Molecular target: human c-Kit (wild type) on the cell surface of LAD2 cells (human, UniProt P10721 26-976)
Assay: cell-based or functional assay

Sequence of human c-Kit (wild type) on the cell surface of LAD2 cells (P10721 26-976): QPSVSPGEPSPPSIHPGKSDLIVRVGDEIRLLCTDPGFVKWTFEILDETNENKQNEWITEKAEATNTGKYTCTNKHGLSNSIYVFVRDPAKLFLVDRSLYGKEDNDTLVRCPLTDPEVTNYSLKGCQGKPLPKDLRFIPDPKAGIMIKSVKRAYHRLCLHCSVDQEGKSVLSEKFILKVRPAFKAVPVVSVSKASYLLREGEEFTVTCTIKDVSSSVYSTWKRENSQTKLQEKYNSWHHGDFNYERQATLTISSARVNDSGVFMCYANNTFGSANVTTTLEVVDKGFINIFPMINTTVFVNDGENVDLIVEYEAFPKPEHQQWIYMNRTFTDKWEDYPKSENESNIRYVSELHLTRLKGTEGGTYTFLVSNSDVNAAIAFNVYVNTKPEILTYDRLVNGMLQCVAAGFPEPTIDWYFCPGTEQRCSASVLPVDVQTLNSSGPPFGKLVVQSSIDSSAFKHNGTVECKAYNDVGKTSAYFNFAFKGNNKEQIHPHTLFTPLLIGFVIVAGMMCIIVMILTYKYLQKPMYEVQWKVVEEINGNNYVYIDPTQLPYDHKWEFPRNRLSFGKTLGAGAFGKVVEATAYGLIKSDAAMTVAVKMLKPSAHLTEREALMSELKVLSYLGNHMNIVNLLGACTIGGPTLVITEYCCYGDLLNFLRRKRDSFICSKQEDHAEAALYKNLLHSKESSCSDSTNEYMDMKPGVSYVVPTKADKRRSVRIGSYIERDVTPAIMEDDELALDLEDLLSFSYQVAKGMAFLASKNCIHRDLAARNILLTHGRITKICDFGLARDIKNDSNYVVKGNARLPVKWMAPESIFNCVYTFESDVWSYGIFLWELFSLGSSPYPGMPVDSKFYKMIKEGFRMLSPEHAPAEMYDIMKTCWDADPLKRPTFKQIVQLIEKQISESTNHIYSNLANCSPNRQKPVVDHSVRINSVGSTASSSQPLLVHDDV

B1: 2G4 antibody (antibody, human IgG1, kappa, V domains shown)
VH: QVQLVESGGGVVQPGRSLRLSCAASGFTFSRYGMHWVRQAPGKGLEWVAVIWYDGTNKDYTDSVRGRFTISRDNSKNTLYLQMNSLRAEDTAVYYCAREDWAEAFDMWGQGTTVTVSS
VL: not shown
For B1, the “IC50 of degranulation (β-hexosaminidase release) increased by SCF and streptavidin in IgE-sensitized LAD2 cells” value was 0.00636 µg/mL and the “half-maximal inhibitory concentration (IC50) of SCF-mediated proliferation of LAD2 cells” value was 0.058 µg/mL.

Reference: patent publication US20250230235A1 (NOVELTY NOBILITY, published 2025)
